Measurements taken from US20250134019A1, “TRIKETONE DIOXYGENASE VARIANTS FOR HERBICIDE TOLERANCE” (Monsanto Technology LLC, priority 2022, published 2025).

Legend:
[1] = test system: transgenic soybean plants; experiment: Response of R0 soybean plants transformed with Round 2 TDO variants to mesotrione; assay type: in vivo; details: same expression elements; Os.TDO control failed transformation in this experiment
Description: The next set of experiments was focused on determining if the balance between improved enzyme stability could outweigh a reduction in activity observed at optimal temperatures in soybean plants. […] To test this hypothesis, the eight variants from Round 2 biochemical analysis described in the preceding paragraph were transformed into soybean through Agrobacterium-mediated transformation, along with three controls. One of the controls (TDO_9) was a variant from the high-throughput screens that had poor activity. Two other controls were the D08 variant and the Os.TDO. R0 transgenic soybean plants were sprayed with the mesotrione herbicide to screen for herbicide tolerance. […] These included the Os.TDO control, the D08 variant and one Round 2 variant. The plants were scored for percent injury as described in the previous examples.

[2] = test system: transgenic soybean plants; experiment: Mesotrione tolerance assay of Os.TDO transgenic soybean events (Construct 32); assay type: in vivo; details: for injury rate: sprayed at V1, rated 13 days after treatment
Description: Mesotrione herbicide rate is expressed as grams active ingredient per hectare (g a.i./ha); 1X commercial rate=105 g a.i./ha. […] Plants at V1 growth stage were sprayed with mesotrione (in Callisto®, Syngenta in 1% crop oil) at 1X, 2X, 4X, 8X, and 16X of commercial rate (equivalent to 105, 210, 420, 840, and 1680 g a.i./ha, respectively). Crop injury ratings were taken 13 days after mesotrione treatment.
Os.TDO transgenic event-125 and wild-type control plants were sprayed with 2X of commercial rate of mesotrione (Callisto, 210 g a.i./ha), tembotrione (Laudis, 184 g a.i./ha) and sulcotrione (Sulcogan, 660 g a.i./ha). Each bar represents the mean of injury rating of 8 reps +/−SE. * indicates significant difference vs corresponding control at p<0.01.
The Os.TDO sequence was cloned into a set of binary vectors using standard cloning methods known in the art with its expression driven by different constitutive promoters and different 3′UTRs. Transgenic soybean plants comprising these constructs were developed using an Agrobacterium-mediated transformation system as described in Larue et al. (2020). The copy number of the transgene was determined via a Taqman assay and events with a single copy of the T-DNA insertion were selected for evaluation of mesotrione tolerance. Briefly, R2 and later generation homozygous lines of three soybean transgenic events derived from Construct 32 were selected for a mesotrione tolerance greenhouse assay. Construct 32 contained two expression cassettes between the T-DNA borders: one for expression of Os.TDO and the other for expression of a selectable marker. The Os.TDO cassette utilized the cauliflower mosaic virus (CaMV) 35S promotor and the 5′ UTR of HSP70 from petunia to drive expression of Os.TDO, followed by the 3′ UTR of the nopaline synthase (nos) gene from the T-DNA region of the Ti plasmid of Agrobacterium tumefaciens, which functions to direct polyadenylation of the mRNA. The selectable marker cassette conferring spectinomycin and streptomycin resistance comprises the promoter, intron, and leader sequences from the Arabidopsis thaliana actin 7 gene, the transit peptide region of Arabidopsis thaliana EPSPS, the coding region of the Tn7 adenylyltransferase (AAD (3″)) gene from E. coli, and the 3′ non-translated region from the Agrobacterium tumefaciens nopaline synthase gene.
Each plant was grown in a 3.5″ pot with soybean potting media in a growth chamber under conditions of 28° C./24° C. (light/dark) and a photoperiod of 16 hr light at 700 μE/8 hr dark, and fertilized with Peters general purpose fertilizer. Eight plants at V1 growth stage were sprayed with mesotrione (in Callisto®, Syngenta in 1% crop oil) at 1X, 2X, 4X, 8X, and 16X of commercial rate (equivalent to 105, 210, 420, 840, and 1680 g active ingredient/ha, respectively). Crop injury ratings were taken 13 days after mesotrione treatment.

B1: Os.TDO: TDO from Oryza sativa (HIS1), SEQ ID NO:2, polynucleotide codon optimized for dicot expression (protein, listed as Oryza sativa)
chain: MADESWRAPAIVQELAAAGVEEPPSRYLLREKDRSDVKLVAAELPEPLPVVDLSRLDGAEEATKLRVALQNWGFFLLTNHGVEASLMDSVMNLSREFFNQPIERKQKFSNLIDGKNFQIQGYGTDRVVTQDQILDWSDRLHLRVEPKEEQDLAFWPDHPESFRDVLNKYASGTKRIRDDIIQAMAKLLELDEDYFLDRLNEAPAFARFNYYPPCPRPDLVFGIRPHSDGTLLTILLVDKDVSGLQVQRDGKWSNVEATPHTLLINLGDTMEVMCNGIFRSPVHRVVTNAEKERISLAMLYSVNDEKDIEPAAGLLDENRPARYRKVSVEEFRAGIFGKFSRGERYIDSLRI
[1]
  typical injury rating for R0 soybean: high 20% to low 30%
[2]; 2X commercial rate sulcotrione (Sulcogan, 660 g a.i./ha), event-125
  tolerance to sulcotrione: provided tolerance
[2]; 2X commercial rate tembotrione (Laudis, 184 g a.i./ha), event-125
  tolerance to tembotrione: provided tolerance
[2]; mesotrione 16X (1680 g a.i./ha)
  injury rate: below 15%
[2]; mesotrione at 8X or lower rate (1X=105 g a.i./ha), three transgenic events
  injury rate: lower than 10%
[2]; up to 16X of commercial application rate (1X=105 g a.i./ha)
  tolerance to mesotrione: excellent tolerance
